Laboratory results published in paper PMC11065751.
Values joined by “and” are separate entries in the source; they are usually repeats but may differ in a detail not shown here. Equal values may be shown once.

Legend:
[1] = molecular target: Vangl2-Long (70 kD isoform), endogenous mouse (mouse (endogenous in IMCD3)); test: co-IP; endogenous proteins; SKBR7 or IMCD3 cell lysates (50 mM Hepes-NaOH pH 8, 150 mM NaCl, 10% glycerol, 2 mM EDTA, 0.5% NP-40) incubated overnight at 4 °C with N-VGL2 pAb (VANGL2-Long specific) or mAb 36E3, protein A or G beads; blots with mAb 36E3 and mAb 19D5; 62 kD and 70 kD bands quantified for the ratio
[2] = molecular target: Vangl2-Long (70 kD isoform), endogenous mouse (mouse (endogenous in IMCD3)); test: co-IP; serial IP of endogenous proteins from IMCD3 cell extracts: two successive rounds of IP with N-VGL2 pAb, then IP of the Vangl2-Long depleted lysate with a Vangl1-specific antibody

B1: Vangl2 (canonical 62 kD isoform), endogenous mouse (natural protein)
chain: MDTESQYSGYSYKSGHSRSSRKHRDRRDRHRSKSRDGSRGDKSVTIQAPGEPLLDNESTRGDERDDNWGETTTVVTGTSEHSISHDDLTRIAKDMEDSVPLDCSRHLGVAAGAILALLSFLTPLAFLLLPPLLWREELEPCGTACEGLFISVAFKLLILLLGSWALFFRRPKASLPRVFVLRALLMVLVFLLVISYWLFYGVRILDARERSYQGVVQFAVSLVDALLFVHYLAVVLLELRQLQPQFTLKVVRSTDGASRFYNVGHLSIQRVAVWILEKYYHDFPVYNPALLNLPKSVLAKKVSGFKVYSLGEENSTNNSTGQSRAVIAAAARRRDNSHNEYYYEEAEHERRVRKRRARLVVAVEEAFTHIKRLQEEEQKNPREVMDPREAAQAIFASMARAMQKYLRTTKQQPYHTMESILQHLEFCITHDMTPKAFLERYLAAGPTIQYHKERWLAKQWTLVSEEPVTNGLKDGIVFLLKRQDFSLVVSTKKVPFFKLSEEFVDPKSHKFVMRLQSETSV
stoichiometry N (Vangl2 per Vangl2-Long) [1]: 3 and 4
percent of Vangl2 depleted by IP of Vangl2-Long [2]: 50%
